A short description of data set [1]: immunofluorescence, confocal microscopy. The following applies: glycan lost; control: untreated cells.
Data set [2] in a line: cycloheximide chase 0-12 h, western blot. Particulars: glycan lost; control: CHX alone. A general note: In western blotting, separated proteins are transferred to a membrane and probed.

This passage reports localisation_or_trafficking and degradation_or_half_life results from paper PMC11793155.

B1: ACTRIIB (activin receptor type IIB, ACVR2B): tunicamycin (TM) (protein)
parent chain: MTAPWVALALLWGSLCAGSGRGEAETRECIYYNANWELERTNQSGLERCEGEQDKRLHCYASWRNSSGTIELVKKGCWLDDFNCYDRQECVATEENPQVYFCCCEGNFCNERFTHLPEAGGPEVTYEPPPTAPTLLTVLAYSLLPIGGLSLIVLLAFWMYRHRKPPYGHVDIHEDPGPPPPSPLVGLKPLQLLEIKARGRFGCVWKAQLMNDFVAVKIFPLQDKQSWQSEREIFSTPGMKHENLLQFIAAEKRGSNLEVELWLITAFHDKGSLTDYLKGNIITWNELCHVAETMSRGLSYLHEDVPWCRGEGHKPSIAHRDFKSKNVLLKSDLTAVLADFGLAVRFEPGKPPGDTHGQVGTRRYMAPEVLEGAINFQRDAFLRIDMYAMGLVLWELVSRCKAADGPVDEYMLPFEEEIGQHPSLEELQEVVVHKKMRPTIKDHWLKHPGLAQLCVTIEECWDHDAEARLSAGCVEERVSLIRRSVNGTTSDCLVSLVTSVTNVDLPPKESSI
Turning to B1, in data set [1], the localisation_or_trafficking result is listed as “decreases”.

B2: ACTRIIB (activin receptor type IIB, ACVR2B): tunicamycin (TM) + CHX (protein)
parent chain: MTAPWVALALLWGSLCAGSGRGEAETRECIYYNANWELERTNQSGLERCEGEQDKRLHCYASWRNSSGTIELVKKGCWLDDFNCYDRQECVATEENPQVYFCCCEGNFCNERFTHLPEAGGPEVTYEPPPTAPTLLTVLAYSLLPIGGLSLIVLLAFWMYRHRKPPYGHVDIHEDPGPPPPSPLVGLKPLQLLEIKARGRFGCVWKAQLMNDFVAVKIFPLQDKQSWQSEREIFSTPGMKHENLLQFIAAEKRGSNLEVELWLITAFHDKGSLTDYLKGNIITWNELCHVAETMSRGLSYLHEDVPWCRGEGHKPSIAHRDFKSKNVLLKSDLTAVLADFGLAVRFEPGKPPGDTHGQVGTRRYMAPEVLEGAINFQRDAFLRIDMYAMGLVLWELVSRCKAADGPVDEYMLPFEEEIGQHPSLEELQEVVVHKKMRPTIKDHWLKHPGLAQLCVTIEECWDHDAEARLSAGCVEERVSLIRRSVNGTTSDCLVSLVTSVTNVDLPPKESSI
B2: the degradation_or_half_life entry in data set [2] is given as “decreases”.
